In paper PMC6466456:
Where two headings read alike, the source gives them in different places.

What was measured:
[1] = target: T1, EGFR, human recombinant, hIgG1-Fc tag (Sino Biological) (Homo sapiens, UniProt P00533 25-645); assay: thermofluorimetric analysis
[2] = target: T1, EGFR, human recombinant, hIgG1-Fc tag …; assay: thermofluorimetric analysis; remark: listed apart in the source
[3] = target: T1, EGFR, human recombinant, hIgG1-Fc tag …; assay: thermofluorimetric analysis; remark: listed apart in the source
[4] = target: T1, EGFR, human recombinant, hIgG1-Fc tag …; assay: flow cytometry, EGFR-coated microspheres

B1: LINN2 (ssDNA)
DNA: CCGCTTTATTGTTAATTAAGTTTTATATTTCGCACAACACACAACAATCAATATC
B1: binds [1].

B2: NS-DNA (ssDNA)
DNA: CGACATCTTTAACCTAGCCCTTGTCAGTGCTCTATGACAAGGTGTGTAGACGACATCTAACCTAGC
B2: no binding [2].

B3: KM4 (ssDNA)
DNA: CTTACCTCTTTCTCCCACCGCCCCAAACATAATTGGTATACCGCAACACAACGCACAACACACAACAATCAAT
Work on B3 yielded a Kd [3] of about 1 nM.

B4: KM4-FITC (ssDNA)
DNA: B3 DNA
modifications: 5' AmMC6
Work on B4 yielded a Kd [4] of 46 nM.
